These are literature values, as cited in patent publication US20080113011A1, “Compositions and methods for enhanced mucosal delivery of interferon beta” (Nastech Pharmaceutical Company Inc., priority 2002, published 2008).

Read-outs that look alike come from different tables or passages of the source.

The conditions of this series: anesthetized rats.

Consider “human growth hormone: human growth hormone given nasally to anesthetized rats with or without N-acetyl-L-cysteine”, for which the nasal bioavailability by setting is: (with N-acetyl-L-cysteine (ACS)) 12.2%; (without N-acetyl-L-cysteine) 7.5%.
